Measurements reported in PMC6946549 (Biochemistry, 2019).

B1: Ltp2 (17-hydroxy-3-oxo-4-pregnene-20-carboxyl-CoA retro-aldolase; chain gamma of the ChsH1-ChsH2-Ltp2 complex) (enzyme)
chain: MLSGQAAIVGIGATDFSKNSGRSELRLAAEAVLDALADAGLSPTDVDGLTTFTMDTNTEIAVARAAGIGELTFFSKIHYGGGAACATVQHAAMAVATGVADVVVAYRAFNERSGMRFGQVQTRLTENADSTGVDNSFSYPHGLSTPAAQVAMIARRYMHLSGATSRDFGAVSVADRKHAANNPKAYFYGKPITIEDHQNSRWIAEPLRLLDCCQETDGAVAIVVTSAARARDLKQRPVVIEAAAQGCSPDQYTMVSYYRPELDGLPEMGLVGRQLWAQSGLTPADVQTAVLYDHFTPFTLIQLEELGFCGKGEAKDFIADGAIEVGGRLPINTHGGQLGEAYIHGMNGIAEGVRQLRGTSVNPVAGVEHVLVTAGTGVPTSGLILG
B2: ChsH2 (chain beta of the ChsH1-ChsH2-Ltp2 complex) (enzyme)
chain: MTGVSDIQEAVAQIKAAGPSKPRLARDPVNQPMINNWVEAIGDRNPIYVDDAAARAAGHPGIVAPPAMIQVWTMMGLGGVRPKDDPLGPIIKLFDDAGYIGVVATNCEQTYHRYLLPGEQVSISAELGDVVGPKQTALGEGWFINQHIVWQVGDEDVAEMNWRILKFKPAGSPSSVPDDLDPDAMMRPSSSRDTAFFWDGVKAHELRIQRLADGSLRHPPVPAVWQDKSVPINYVVSSGRGTVFSFVVHHAPKVPGRTVPFVIALVELEEGVRMLGELRGADPARVAIGMPVRATYIDFPDWSLYAWEPDE

How the values were obtained:
negative-stain EM = biological target: the molecule itself; assay: negative-stain EM
[1] = biological target: B1; assay: SAXS

B1
binding result (negative-stain EM): binds

B2
binding result [1]: binds
